This assay has as its target AD7C-NTP neural thread protein (purified recombinant AD7C-NTP). In words: cell-based or functional assay.

These results are taken from patent US7572450.

Side chains are listed from the residue outwards. Ends that are not written are not given here. maleimide = maleimide-activated rabbit IgG carrier, to which the peptide is conjugated through its cysteine; rabbit IgG = rabbit IgG carrier (maleimide-activated), conjugated to the peptide

In the case of C([maleimide-rabbit IgG])ARYRTGHHARLM [Harlil sequence NTP-3], the reduction in tissue necrosis (rat injection sites, histopathology at 24 hours) was greater than 95%.

Turning to DNTHHARLIL (also: conjugated to maleimide-activated rabbit IgG, mode not given here) [Harlil sequence NTP-7], the reduction in tissue necrosis (rat injection sites, histopathology at 24 hours) is greater than 95%.

Take LHARLCLANFCGRNRV (also: conjugated through a cysteine to maleimide-activated rabbit IgG) [Harlil sequence NTP-1]: the reduction in tissue necrosis (rat injection sites, histopathology at 24 hours) is greater than 95%.
